The source of these data is patent publication US20100291705A1, “ANTIGEN EXPOSING MICELLE AND UNORDERED AGGREGATE” (EURO-DIAGNOSTICA AB, priority 2007, published 2010).

This series deals with T1, (Homo sapiens, UniProt P02749).
T1 sequence (P02749 20-345): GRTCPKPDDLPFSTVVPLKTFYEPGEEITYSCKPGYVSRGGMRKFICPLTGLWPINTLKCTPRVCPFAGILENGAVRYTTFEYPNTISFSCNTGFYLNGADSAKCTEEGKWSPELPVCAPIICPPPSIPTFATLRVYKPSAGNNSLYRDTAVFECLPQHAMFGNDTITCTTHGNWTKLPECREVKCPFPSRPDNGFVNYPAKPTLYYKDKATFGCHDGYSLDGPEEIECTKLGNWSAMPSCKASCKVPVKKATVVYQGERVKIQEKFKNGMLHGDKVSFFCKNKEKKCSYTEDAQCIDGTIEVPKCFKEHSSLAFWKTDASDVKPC
The series is described as follows: Detection of β2-GPI associated to the cardiolipin aggregates with mouse IgG anti-β2-GPI antibody (ELISA). The class given is binding. The note with it: after washing with 0.05% Tween-20 in PBS. The protocol:
Antigen exposing lipid aggregates were prepared according to example 2 by mixing 90% cardiolipin with 10% PE-bio. The lipid aggregates were then adsorbed on a 96-well streptavidin coated ELISA plate (Eurodiagnostica AB) at concentration 90 μg/ml. The plate was incubated for 1 h at room temperature. The plate was washed three times with 0.05% Tween-20 in PBS and then incubated with or without β2-GPI for 30 minutes.
To determine the amount β2-GPI bound to cardiolipin aggregates a mouse IgG anti-β2-GPI antibody was used. This antibody was detected with an alkaline phosphatase conjugated anti-mouse IgG antibody (Sigma-Aldrich).
All the antibodies were diluted in PBS with 1% BSA and incubated for 1 h at RT. The plate was developed with alkaline phosphatase yellow liquid system for ELISA (Sigma-Aldrich) and absorbance 405 nm determined after 10-30 min. Between each incubation step the plate was washed three times with 0.05% Tween-20 in PBS.

B1: β2-GPI: protein incubated with bound cardiolipin aggregates to form the cardiolipin-β2-GPI complex (protein, UniProt P02749 20-345, looked up)
Beta-2-glycoprotein 1: GRTCPKPDDLPFSTVVPLKTFYEPGEEITYSCKPGYVSRGGMRKFICPLTGLWPINTLKCTPRVCPFAGILENGAVRYTTFEYPNTISFSCNTGFYLNGADSAKCTEEGKWSPELPVCAPIICPPPSIPTFATLRVYKPSAGNNSLYRDTAVFECLPQHAMFGNDTITCTTHGNWTKLPECREVKCPFPSRPDNGFVNYPAKPTLYYKDKATFGCHDGYSLDGPEEIECTKLGNWSAMPSCKASCKVPVKKATVVYQGERVKIQEKFKNGMLHGDKVSFFCKNKEKKCSYTEDAQCIDGTIEVPKCFKEHSSLAFWKTDASDVKPC
With B1, the “β2-GPI bound to cardiolipin aggregates (FIG. 8)” value is on record as “remained associated with cardiolipin after washing with 0.05% Tween-20 in PBS”.
